The supplement of paper PMC9170038

Test system: MS2 coat protein
Assay: apparent KD of MS2 coat protein; designed switch direction (-1 OFF switch, 1 ON switch): -1; higher = weaker reporter binding
How it was run: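 Transcription of designed RNA switches on Illumina chips was done by stalled E. coli RNA polymerase. SNAP-549-labelled MS2 coat protein was then titrated in doubling steps from 0.7 or 1.5 nM to 3 µM, with steps of 0.8–1.5 h at the lowest and 10–20 min at the highest concentration. The per-design median over clusters of curve-fitted normalised fluorescence is reported as apparent KD.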

[1] = input ligand: microRNA oligo, concentration not stated
[2] = Eterna round: R95, input ligand: FMN 200 uM
[3] = Eterna round: R95, input ligand: microRNA oligo, concentration not stated
[4] = Eterna round: R95, input ligand: none

Sequence	apparent KD of MS2 coat protein (input ligand: FMN 200 uM)	apparent KD of MS2 coat protein (input ligand: none)	apparent KD of MS2 coat protein [1]	apparent KD of MS2 coat protein [2]	apparent KD of MS2 coat protein [3]	apparent KD of MS2 coat protein [4]
GUAGAGUCAGGAUAUACGAGAUCGAAAGAUCAAAGAUUCCUACAUGAGGAUCACCCAUGUAGAAGGGACUCUAC [Eli x2 4.123] (Eterna round: R97, puzzle: Exclusion 2)	16 nM	15.6 nM				
GUCAGCUCGUCAGGAUAUACAUGAGGAUCACCCAUGUGGUCAAUAGCAGCUUCGGCUGCAUACAUGUAGAAGGGACGAGCUGAC [ENG2/7-B1] (Eterna round: R96, puzzle: Exclusion NG 2)	18.8 nM	78.2 nM	6.88 nM			
AGUAGUAGUAUCCGAUCCUACAUGAGGAUCACCCAUGUAGCUAGACGUGCGCGCGAUGCUCGUCAGACUACCAGAUG [salish99_TOv1_r3_047] (puzzle: Sensor v3, turn-off variant 1)				159 nM	198 nM	276 nM
GGUUAGACGGUAGGAUAUCCAUAUCGAGUGACCCUUUCAUAACAUGAGGAUCACCCAUGUCGGUGGGAGAAGGGCCGUACGGCG [salish99_ExNG02_R04_009] (Eterna round: R96, puzzle: Exclusion NG 2)	50.9 nM	42.2 nM	33.5 nM			
AAAAUAACAUGAGGAUCACCCAUGUAAUUGGGUAGUCCGAGCGAGGAUAUCCUCGCCGGAAAAGAGGAGAAGGCGCAAUGAAAG [Usxeeran] (Eterna round: R96, puzzle: Exclusion NG 3)	882 nM	509 nM	424 nM			
CUCCGACAUGAGGAUCACCCAUGUGAGGAUAUGUAGCCCAGUUGGACAACUCGAGGUAGCAGAAGGCACAUGCC [Eternabot (L2) Solution 64] (Eterna round: R97, puzzle: Exclusion 1)	57.6 nM	27 nM				
AUUUUAUAUGAAGGAUAUACUUAACAUGAGGAUCACCCAUGUGGUGUUGUGAGUGAGUGAGUUUAGUAGAAGGUCAAGUAUUUU [JMF's solution 55] (Eterna round: R96, puzzle: Exclusion NG 2)	724 nM	396 nM	284 nM			
UUAAUUAAUUAACGCAGCAAGAUCACAUGAGGAUCACCCAUGUAGGAUAUCAGCUCGUGUAGAGCUGAGAAGGACAUAGCUGCG [ExNG3/1-A3] (Eterna round: R96, puzzle: Exclusion NG 3)	80.8 nM	16.8 nM	17.2 nM			
AUUAUAUAGACAGGAUAUUGAUUAUUAUUUUAACAUGAGGAUCACCCAUGUAGCCUUAUGUAUAACAAGAAGGGUCAUUUAUUA [Title] (Eterna round: R96, puzzle: Exclusion NG 2)			124 nM			
UGAUGUUGAUAGGAUAUACAGGUAGGAGUAGGAGUAGAAGGAUCUACAUGAGGAUCACCCAUGUAGGAGUGAGA [JR_E6_Sub001] (puzzle: Exclusion 6)				21.7 nM	12.5 nM	16.4 nM
GGCAUAAACGAGGAUAUCGUUACGGAAACGUAACGAGAAGGUGUAACAUGAGGAUCACCCAUGUUCCUCAAGCC [Mat - Exclusion 6 - Eli Mod - D59] (Eterna round: R96, puzzle: Exclusion 6)	36.8 nM	38 nM	29.8 nM			
UGUACUAUGCGUGCUGACAUGCGUAGUGCAGCAGGUGUUACAUGAGGAUCACCCAUGUCCUCAUUUGCUCGUCUUAA [Mat - Sensor v3 - Turn-off var 2 - D17] (puzzle: Sensor v3, turn-off variant 2)				205 nM	219 nM	177 nM
UUGUUACAUGAGGAUCACCCAUGUGAGGAUAUGGUUCAGUAAUGUAAUGUAAAGUAAUCCAGAAGGCACAUGUU [1st #26] (Eterna round: R97, puzzle: Exclusion 1)	1290 nM	756 nM				
AGCUGACAAGGAUAUACAUGAGGAUCACCCAUGUUGGUUCAGCGACGAUAGUCGCAAUGUAGAAGGUGUCAGCU [E3/9-C2] (Eterna round: R97, puzzle: Exclusion 3)	108 nM	282 nM				
UACUGGACAGGAUAUGUACUUGAGCACUUGAGGAUCACCCAAGUCAUCAAGUACUCAGGCACAGAAGGGUUAAUUU [jl-ex5.4.64 ViennaUCT mod] (Eterna round: R97, puzzle: Exclusion 5)	330 nM	129 nM				
UUUAAUUUUUUUUUUUUACAAGCUUUUUGCUCGUCUUAUACAUGAGGAUCACCCAUGUGGAUGGGAAGUAAAUUAUC [JMF 52] (puzzle: Sensor v3, turn-off variant 2)				23.9 nM	59.2 nM	20.9 nM
UAGAUGGGAGGAUAUACGUAGAUGCAGAUUCGUGUGGUGCUACAUGAGGAUCACCCAUGUAGAAGGCCCGUCUU [JL-ex2-2.24 Mayanne mod] (puzzle: Exclusion 2)					15.4 nM	
GGUCUUCAAGUCAGGAUAUCGUCUAAUCGGUCUGGCGAGAAGGGACAUGAGGAUCACCCAUGUCGUCUCAUCAG [Ex4 #15] (Eterna round: R97, puzzle: Brourd's mod of Exclusion 4)	27.1 nM	20.4 nM				
CAUGAUUGGGAAGGAUAUUGACCUAGUUAGUGCCGAGAAGGUCCCUUUCACAUGAGGAUCACCCAUGUGAGACUGGUGUUCGAG [Ex NG1 #98] (Eterna round: R96, puzzle: Exclusion NG 1)			19.6 nM			
GGGAAACAUGAGGAUCACCCAUGUCAGGAUAUGAUACUAUGUACUUCGGUACAUAGUAUCAGAAGGGACAUCAU [Ex1-3: 13] (puzzle: Exclusion 1)					79.2 nM	
GUACUACAUGAGGAUCACCCAUGUCAGGAUAUGGGAAUUUCAUCAAAAGAUGAAAUUCUUAGAAGGGACAGUAC [Omei Ex1 A5] (Eterna round: R97, puzzle: Exclusion 1)	24.6 nM	22.2 nM				
CAGGGUAGAGGAUAUACGUAGGUACAGAUCUGUGUGUUCCUACAUGAGGAUCACCCAUGUAGAAGGCUAGCCUG [LRO-Excl2-08] (puzzle: Exclusion 2)					77.9 nM	
GAUCAUGCAGGAUAUACAUGGAACAUGUAAUCAUGAAUUUCACAUGAGGAUCACCCAUGUAGAAGGGCAUGAUC [Omei Ex2 A14] (Eterna round: R97, puzzle: Exclusion 2)	151 nM	2740 nM				
AUUAUACAUGUAGGAUAUCUGCACGAUUAGUGCAGAGAAGGACAUGAGGAUCACCCAUGUAGAUCAAUAAUAAUUAAUUUAAUU [ENG1/6-B1] (Eterna round: R96, puzzle: Exclusion NG 1)	500 nM	156 nM	122 nM			
GUAAUGUCCGAGGAUAUCCUUCUAAAUAUAUAUGGAGAAGGCGGUACAUGAGGAUCACCCAUGUCCAAAAUGGG [Parada] (Eterna round: R97, puzzle: Exclusion 6)	229 nM	1680 nM				
CCUCGUUGGGAGGAUAUCCUUUAGAUUGGAGGAGGAGAAGGCUCGACAUGAGGAUCACCCAUGUGGGAUUUCCC [-24.6, -21.9 kcal, A 23%] (Eterna round: R97, puzzle: Exclusion 6)	127 nM	35.6 nM				
